Source: paper PMC3753320
pKd: −log10 of the molar value. Like-named read-outs stand apart in the source and are kept apart here.

Legend:
rhTGF-β (Homo sapiens) = rhTGF-β (Homo sapiens) (UniProt P01137); test: SPR; details: cited from earlier work
[1] = target: rhOP-1 (BMP-7) (Homo sapiens) (UniProt P18075); test: SPR; details: cited from earlier work
rhBMP-2 (Homo sapiens) [2] = target: rhBMP-2 (Homo sapiens) (UniProt P12643); test: SPR; details: cited from earlier work
[3] = target: Recombinant human transforming growth factor-β1 (TGF-β1) (human) (UniProt P01137); test: SPR; Biacore T-100, CM5 chip, amine coupling, HBS-EP running buffer; TGF-β immobilised as ligand, Spp24 proteins as analytes; five concentrations of each analyte; kinetic constants by the manufacturer's software
Sequence of Recombinant human transforming growth factor-β1 (TGF-β1) (human) (P01137 279-390): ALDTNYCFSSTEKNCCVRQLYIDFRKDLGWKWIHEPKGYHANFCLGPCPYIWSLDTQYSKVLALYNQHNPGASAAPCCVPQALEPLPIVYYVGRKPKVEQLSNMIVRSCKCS

rhBMP-2 (Homo sapiens) [4] = target: rhBMP-2 (Homo sapiens) (UniProt P12643); details: cited from earlier work
rhBMP-2 (Homo sapiens) [5] = target: rhBMP-2 (Homo sapiens) (UniProt P12643); details: cited from earlier work; remark: listed apart in the source
TGF-β1 (Homo sapiens) = TGF-β1 (Homo sapiens) (UniProt P01137); details: cited from earlier work
Sequence of TGF-β1 (Homo sapiens) (P01137 279-390): as above

Sequence of Spp18.1, C-terminal truncation product of Spp24 (domain or fragment) (Q27967 24-203): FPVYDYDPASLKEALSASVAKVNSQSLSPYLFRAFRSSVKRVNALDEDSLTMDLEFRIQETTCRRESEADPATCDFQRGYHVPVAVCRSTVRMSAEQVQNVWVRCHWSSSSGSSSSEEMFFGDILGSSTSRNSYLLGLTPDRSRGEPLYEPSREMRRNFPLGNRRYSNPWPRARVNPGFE
Sequence of Spp14.5, C-terminal truncation product of Spp24 (domain or fragment) (Q27967 24-203): as above
Sequence of Spp16.0, C-terminal truncation product of Spp24 (domain or fragment) (Q27967 24-203): as above
Sequence of rhBMP-2 (Homo sapiens) (P12643 283-396): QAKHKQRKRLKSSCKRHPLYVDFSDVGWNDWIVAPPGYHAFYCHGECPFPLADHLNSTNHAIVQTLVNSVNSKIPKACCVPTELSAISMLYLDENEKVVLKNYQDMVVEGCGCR
Sequence of fetuin TRH1 peptide (P12763 114-133): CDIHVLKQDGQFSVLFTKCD
Sequence of rhOP-1 (BMP-7) (Homo sapiens) (P18075 293-431): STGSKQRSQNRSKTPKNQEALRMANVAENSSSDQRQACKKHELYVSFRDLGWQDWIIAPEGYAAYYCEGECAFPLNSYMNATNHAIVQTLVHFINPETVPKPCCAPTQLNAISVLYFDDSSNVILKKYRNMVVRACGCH
Sequence of rhTGF-β (Homo sapiens) (P01137 279-390): as the sequence (P01137 279-390) above

Substance	pKd [3]	koff [3] [s⁻¹]	kon [3] [M⁻¹ s⁻¹]	further results
BMP Binding Peptide (BBP) TRH1 domain (from UniProt Q27967)				pKd (rhTGF-β (Homo sapiens)): 7.17; pKd [1]: 7.94; pKd (rhBMP-2 (Homo sapiens) [2]): 7.27
Spp14.5, C-terminal truncation product of Spp24 (domain or fragment)	5.85	0.00589	4180	
Spp16.0, C-terminal truncation product of Spp24 (domain or fragment)	5.49	0.0122	5550	
Spp18.1, C-terminal truncation product of Spp24 (domain or fragment)	5.86	0.0106	10000	
Spp24 TRH1 peptide (BBP)				pKd (rhBMP-2 (Homo sapiens) [4]): 4.52
fetuin TRH1 peptide				pKd (rhBMP-2 (Homo sapiens) [5]): 5.62; pKd (TGF-β1 (Homo sapiens)): < 5.00
